The results in this text go back to patent publication US12448453 (NANJING IASO BIOTECHNOLOGY, dated 2025).

Assay [1] has as its target T1, human CD22 (human, UniProt P20273 20-687, limits assumed).
T1 construct: CD22-llama-Fc and CD22-his are named only for the yeast library sorting; also called CD22 antigen
Description: ForteBio, antibody in the form of IgG, avid. (In general: Biolayer interferometry detects binding as a change in optical thickness at a sensor tip.)

For assay [2], the target named is T1, human CD22. The assay is described as follows: ForteBio, antibody in the form of Fab, monovalent.
Assay [3] addresses T2, CD22 antigen on the surface of target cells (Raji, REH, NALM6, JVM2, 3E09, 3D11) (human, UniProt P20273 20-847). Description: cell-based or functional assay.
Assay [4] deals with T2, CD22 antigen on the surface of target …. The assay is described as follows: cell-based or functional assay. This is another data set of the same source.
The target is the same in assay [5]. The assay is described as follows: cell-based or functional assay. The source holds these as a separate data set.
The target in assay [6] is T3, CD22-FITC protein (Acro Biosystem, Cat. No. SI2-HF2H6) (UniProt P20273 20-687, FITC label).
T3 construct: Bought reagent; also called FITC-CD22 protein; CD22 protein
Description: flow cytometry of CAR-T cells stained with FITC-CD22 protein and APC anti-CD8, quadrant gate.
Description: Cell samples were stained with APC mouse anti-human CD8, PE anti-human EGFR and FITC-CD22 protein.
When the cells were cultured to the 6th or 7th day, the expression of CAR molecules, tEGFR molecules and CD8 on the cell surface was detected by flow cytometry. […] On day 6 of cell culture, approximately 5 ×10^5 cells were removed from each sample individually, and the medium was removed by centrifugation at 500 g. […] The mixtures were mixed well and incubated at 4° C. in the dark for 20 min. After completion of incubation, the cells were washed twice with PBS+1% HSA solution again, re-suspended in 200 μL of PBS+1% HSA solution, and then loaded onto the instrument for testing.

Positions count from the first letter of the chain named. Names and notes keep the numbering of the source.

B1: clone 17 anti-CD22 antibody in the form of IgG (antibody, V domains shown)
VH: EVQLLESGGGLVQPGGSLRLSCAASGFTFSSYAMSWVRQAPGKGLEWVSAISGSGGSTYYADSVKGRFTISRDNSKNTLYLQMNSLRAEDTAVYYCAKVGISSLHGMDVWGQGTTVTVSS
VL: DIQMTQSPSTLSASVGDRVTITCRASQSISSWLAWYQQKPGKAPKLLIYKASSLESGVPSRFSGSGSGTEFTLTISSLQPDDFATYYCQQYERFPWTFGGGTKVEIK
notes: Fully human; tested 'in the form of IgG'
B1: in the assay with human CD22 [1], the Kd turned out to be 1.6 nM, the Response came to 0.62 nm, the koff is 0.0002 s⁻¹ and the kon came out at 130000 M⁻¹ s⁻¹.

B2: clone 28 anti-CD22 antibody in the form of IgG (antibody, V domains shown)
VH: QVQLQESGPGLVKPSETLSLTCTVSGGSISSYYWSWIRQPAGKGLEWIGRIYTSGSTNYNPSLKSRVTMSVDTSKNQFSLKLSSVTAADTAVYYCARDLYRDGMDVWGQGTTVTVSS
VL: B1 VL with Y49S, K50D, Y91A, E92N, R93T, F94Y, P95S, W96P
notes: as for B1
As to B2, in the assay with human CD22 [1], the Kd stood at 0.97 nM, the Response stood at 0.81 nm, the koff worked out at 0.0002 s⁻¹ and the association rate constant (kon) is 210000 M⁻¹ s⁻¹.

B3: clone 17 anti-CD22 antibody in the form of Fab (Fab, V domains shown)
VH: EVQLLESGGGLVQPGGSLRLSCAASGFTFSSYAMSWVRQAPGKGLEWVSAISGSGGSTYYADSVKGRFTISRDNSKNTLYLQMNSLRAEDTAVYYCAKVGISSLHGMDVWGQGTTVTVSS
VL: B1 VL
notes: Tested 'in the form of Fab'
In the assay with human CD22 [2], B3 displayed a Kd of 8.1 nM, a Response of 0.19 nm, a koff of 0.0017 s⁻¹ and a kon of 210000 M⁻¹ s⁻¹.

B4: clone 28 anti-CD22 antibody in the form of Fab (Fab, V domains shown)
VH: B2 VH
VL: B1 VL with Y49S, K50D, Y91A, E92N, R93T, F94Y, P95S, W96P
notes: Tested 'in the form of Fab'
In the assay with human CD22 [2], B4 showed a Kd of 0.94 nM, a Response of 0.25 nm, a koff of 0.00027 s⁻¹ and an on-rate (kon) of 280000 M⁻¹ s⁻¹.

B5: clone 28 CAR (CD22-targeted chimeric antigen receptor, clone 28 scFv with CD8α hinge and transmembrane region, 4-1BB and CD3z), on reporter cells or CAR-T cells (other)
chain: QVQLQESGPGLVKPSETLSLTCTVSGGSISSYYWSWIRQPAGKGLEWIGRIYTSGSTNYNPSLKSRVTMSVDTSKNQFSLKLSSVTAADTAVYYCARDLYRDGMDVWGQGTTVTVSSGGGGSGGGGSGGGGSDIQMTQSPSTLSASVGDRVTITCRASQSISSWLAWYQQKPGKAPKLLISDASSLESGVPSRFSGSGSGTEFTLTISSLQPDDFATYYCQQANTYSPTFGGGTKVEIKFVPVFLPAKPTTTPAPRPPTPAPTIASQPLSLRPEACRPAAGGAVHTRGLDFACDIYIWAPLAGTCGVLLLSLVITLYCNHRNKRGRKKLLYIFKQPFMRPVQTTQEEDGCSCRFPEEEEGGCELRVKFSRSADAPAYQQGQNQLYNELNLGRREEYDVLDKRRGRDPEMGGKPRRKNPQEGLYNELQKDKMAEAYSEIGMKGERRRGKGHDGLYQGLSTATKDTYDALHMQALPPRGSGEGRGSLLTCGDVEENPG
notes: Chimeric antigen receptor on the cell surface; The entry ends with GSG and the T2A remnant; also called clone28-bbz
Take B5: in assay [3], the “in vitro cell killing efficiency, target cells NALM6-ffLuc, 17 h, E:T 0.5:1” value was -26.8%; the “in vitro cell killing efficiency, target cells NALM6-ffLuc, 17 h, E:T 1:1” value stood at 13.8%; the “in vitro cell killing efficiency, target cells NALM6-ffLuc, 17 h, E:T 2:1” value was found to be 76.1%. For the same molecule, in assay [4], the “positive rate of CD107a in the CD8+/CAR+ cell population, target cell 3D11 (CD22 knockout/knockdown Raji)” value was determined as 16.9%; the “positive rate of CD107a in the CD8+/CAR+ cell population, target cell JVM2” value was 43.5%; the “positive rate of CD107a in the CD8+/CAR+ cell population, target cell NALM6” value amounted to 73.5%; the “positive rate of CD107a in the CD8+/CAR+ cell population, target cell REH” value is 70.4%. The “positive rate of CD107a in the CD8+/CAR+ cell population, target cell raji” value in assay [4] came out at 54.8%. In addition, in assay [5], the “in vitro cell killing efficiency, target cells REH-ffLuc, 17 h, E:T 0.5:1” value was -50.1%; the “in vitro cell killing efficiency, target cells REH-ffLuc, 17 h, E:T 1:1” value was -23.9%; the “in vitro cell killing efficiency, target cells REH-ffLuc, 17 h, E:T 2:1” value was determined as 63.8%. For the same molecule, in assay [6], the “percent of cells in Q1 (FITC-CD22 positive, APC-CD8 negative)” value stood at 23.3% and the “percent of cells in Q2 (FITC-CD22 positive, APC-CD8 positive)” value turned out to be 12.7%.

B6: clone 80 CAR (CD22-targeted chimeric antigen receptor, clone 80 scFv with CD8α hinge and transmembrane region, 4-1BB and CD3z), on reporter cells or CAR-T cells (other)
chain: QVQLQESGPGLVKPSGTLSLTCAVSGGSISSSNWWSWVRQPPGKGLEWIGEIYHSGSTNYNPSLKSRVTISVDKSKNQFSLKLSSVTAADTAVYYCARLPGYESAFDIWGQGTMVTVSSGGGGSGGGGSGGGGSEIVLTQSPGTLSLSPGERATLSCRASQSVSSSYLAWYQQKPGQAPRLLIYGASSRATGIPDRFSGSGSGTDFTLTISRLEPEDFAVYYCQQAGLFPYTFGGGTKVEIKFVPVFLPAKPTTTPAPRPPTPAPTIASQPLSLRPEACRPAAGGAVHTRGLDFACDIYIWAPLAGTCGVLLLSLVITLYCNHRNKRGRKKLLYIFKQPFMRPVQTTQEEDGCSCRFPEEEEGGCELRVKFSRSADAPAYQQGQNQLYNELNLGRREEYDVLDKRRGRDPEMGGKPRRKNPQEGLYNELQKDKMAEAYSEIGMKGERRRGKGHDGLYQGLSTATKDTYDALHMQALPPRGSGEGRGSLLTCGDVEENPG
notes: Chimeric antigen receptor on the cell surface; also called clone80-bbz
With B6, in assay [3], the “in vitro cell killing efficiency, target cells NALM6-ffLuc, 17 h, E:T 0.5:1” value was 15.3%; the “in vitro cell killing efficiency, target cells NALM6-ffLuc, 17 h, E:T 1:1” value came to 58.5%; the “in vitro cell killing efficiency, target cells NALM6-ffLuc, 17 h, E:T 2:1” value was 90.5%. In assay [4], the “positive rate of CD107a in the CD8+/CAR+ cell population, target cell 3D11 (CD22 knockout/knockdown Raji)” value came out at 18.9%; the “positive rate of CD107a in the CD8+/CAR+ cell population, target cell JVM2” value was found to be 32.8%; the “positive rate of CD107a in the CD8+/CAR+ cell population, target cell NALM6” value was 59.7%; the “positive rate of CD107a in the CD8+/CAR+ cell population, target cell REH” value came out at 62.3%. Moreover, the “positive rate of CD107a in the CD8+/CAR+ cell population, target cell raji” value in assay [4] was 39.7%. Besides, in assay [5], the “in vitro cell killing efficiency, target cells REH-ffLuc, 17 h, E:T 0.5:1” value was -18.2%; the “in vitro cell killing efficiency, target cells REH-ffLuc, 17 h, E:T 1:1” value came to 40.2%; the “in vitro cell killing efficiency, target cells REH-ffLuc, 17 h, E:T 2:1” value is 89%. Also, in assay [6], the “percent of cells in Q1 (FITC-CD22 positive, APC-CD8 negative)” value was determined as 27.5% and the “percent of cells in Q2 (FITC-CD22 positive, APC-CD8 positive)” value came out at 17.6%.

B7: clone 80 anti-CD22 antibody in the form of IgG (antibody, V domains shown)
VH: QVQLQESGPGLVKPSGTLSLTCAVSGGSISSSNWWSWVRQPPGKGLEWIGEIYHSGSTNYNPSLKSRVTISVDKSKNQFSLKLSSVTAADTAVYYCARLPGYESAFDIWGQGTMVTVSS
VL: EIVLTQSPGTLSLSPGERATLSCRASQSVSSSYLAWYQQKPGQAPRLLIYGASSRATGIPDRFSGSGSGTDFTLTISRLEPEDFAVYYCQQAGLFPYTFGGGTKVEIK
notes: as for B1
For B7, in the assay with human CD22 [1], binding was characterised by a dissociation constant (Kd) of 0.82 nM, the Response was determined as 0.93 nm, the koff came to 0.0002 s⁻¹ and the kon worked out at 240000 M⁻¹ s⁻¹.

B8: clone 80 anti-CD22 antibody in the form of Fab (Fab, V domains shown)
VH: B7 VH
VL: B7 VL
notes: Tested 'in the form of Fab'
In the assay with human CD22 [2], B8 yielded an equilibrium dissociation constant (Kd) of 13 nM, a Response of 0.24 nm, a koff of 0.0046 s⁻¹ and an on-rate constant (kon) of 360000 M⁻¹ s⁻¹.

By Kd is commonly meant the concentration at which binding is half-saturated. The koff is the rate constant with which the complex falls apart. Low values mean a long-lived complex, high ones a short-lived complex. By kon is commonly meant the rate constant with which the complex forms. Read a high kon as faster complex formation.
